Laboratory results: US20240384250A1, “FIBROBLAST GROWTH FACTOR 23 MODULATING COMPOUNDS” (THE UAB RESEARCH FOUNDATION, priority 2021, published 2024)
Entries after “also recorded” stand apart in the source; their conditions may differ.

Molecular target: T1, FGF23 binding to FGFR1c (Homo sapiens, UniProt P11362+Q9GZV9)
T1 construct: Fc-coupled FGFR ectodomains were immobilized on protein A/G beads; purchased R&D Systems 2604FG025/CF or 2629FG025/CF; 658FR050
T1 sequence (Q9GZV9 25-251): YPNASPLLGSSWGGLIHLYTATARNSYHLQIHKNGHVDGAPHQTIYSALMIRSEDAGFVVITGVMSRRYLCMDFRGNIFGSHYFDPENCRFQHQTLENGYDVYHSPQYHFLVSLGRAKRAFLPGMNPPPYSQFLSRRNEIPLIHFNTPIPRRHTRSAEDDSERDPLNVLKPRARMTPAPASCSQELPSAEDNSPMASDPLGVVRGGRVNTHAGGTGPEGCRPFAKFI
T1 sequence (P11362 22-376 limits assumed): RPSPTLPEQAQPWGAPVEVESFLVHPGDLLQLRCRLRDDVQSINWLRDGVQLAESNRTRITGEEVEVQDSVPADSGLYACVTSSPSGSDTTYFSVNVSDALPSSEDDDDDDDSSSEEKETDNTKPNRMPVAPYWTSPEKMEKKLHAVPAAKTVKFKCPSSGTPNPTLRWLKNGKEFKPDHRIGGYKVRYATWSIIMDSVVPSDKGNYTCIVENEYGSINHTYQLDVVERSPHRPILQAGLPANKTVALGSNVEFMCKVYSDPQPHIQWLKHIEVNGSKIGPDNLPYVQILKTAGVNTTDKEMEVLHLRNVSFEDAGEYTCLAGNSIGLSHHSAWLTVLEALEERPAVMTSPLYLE
Experiment: Pull-down of FGF23 with Fc-FGFR on protein A/G beads with sKL, heparin or PBS
Settings: with heparin, or alone
Procedure: To study the interaction between Fc-tagged FGFR isoforms (Fc-FGFR), FGF isoforms, and sKL, immunoprecipitation studies were conducted. Protein A beads (6501, BioVision) and protein G beads (6511, BioVision) were used at 25 μl of a 50% stock slurry per sample in a total bead volume of 50 μl. Beads were washed 5× in activity buffer (50 mM Tris [pH 7.4], 200 mM NaCl, 0.01% Tween 20). Bead spin-down assays were all performed for 2 minutes at 5000 g. Beads were resuspended in 1 ml of activity buffer in a 1.5-ml snap cap tube. One microgram of Fc-FGFR1 to 4 was incubated with the beads for 1 hour on a bead rotator. Control samples were incubated with 2 μg of anti-FGF antibody instead of Fc-FGFR. Beads were then pelleted at 5000 g for 2 minutes and washed 5× with activity buffer. Beads were resuspended and incubated with different combinations of 500 ng of FGF, 1 μg of sKL, 1.6 United States Pharmacopeia (USP) units of heparin, or phosphate-buffered saline (PBS). Beads were incubated for 1 hour on a tube rotator, and beads were pelleted and washed as before. One hundred microliters of 1× Laemmli sample buffer (1610737, Bio-Rad) with 1.42 M 2-mercaptoethanol was added, and samples were boiled for 5 minutes. Samples were analyzed using SDS-PAGE and Western blotting.
The sample (20 μl) was loaded onto Mini-PROTEAN TGX Precast Gel 4-20% for experiments with <9 samples (4568094, Bio-Rad) or Criterion TGX Precast Gel 4-20% (5678094, Bio-Rad) for experiments with >9 samples. Gels were run in 1× Tris/Glycine/SDS buffer (1610732, Bio-Rad) at 150 V and stopped when the sample dye reached the end of the gel. Gels were removed and electrotransferred via a semi-dry cassette (1703940, Bio-Rad) in I× Tris/Glycine buffer (1610734, Bio-Rad) with 20% methanol. Gels were transferred onto polyvinylidene diflouride membranes (IPVH00010, Millipore) at 20 V for 1 hour. Membranes were then blocked in 5% dried milk with 0.5% Tween 20 diluted in Tris-buffered saline (TBST; pH 7.5) for 1 hour and probed with antibodies against specific antigens at 1:1000 in TBST with 5% dried milk. Blots were washed 3× for 5 minutes in TBST and probed with HRP-coupled secondary antibodies against specific species at 1:10,000 in TBST with 5% dried milk. Membranes were imaged on the SRX-101A X-ray film developer (Konica Minolta).

B1: FGF23: recombinant fibroblast growth factor 23 protein from R&D Systems (protein)
chain: YPDTSPLLGSNWGSLTHLYTATARTSYHLQIHRDGHVDGTPHQTIYSALMITSEDAGSVVITGAMTRRFLCMDLHGNIFGSLHFSPENCKFRQWTLENGYDVYLSQKHHYLVSLGRAKRIFQPGTNPPPFSQFLARRNEVPLLHFYTVRPRRHTRSAEDPPERDPLNVLKPRPRATPVPVSCSRELPSAEEGGPAASDPLGVLRRGRGDARGGAGGADRCRPFPRFV
  FGF23 co-precipitation with Fc-FGFR1c: no FGF23 binding was detected

B2: sKL: recombinant soluble α-klotho ectodomain, mouse aa 35-982 and human aa 34-981, FLAG- or Strep/His-tagged, purified from HEK293 cells (protein)
chain: EPGDGAQTWARFSRPPAPEAAGLFQGTFPDGFLWAVGSAAYQTEGGWQQHGKGASIWDTFTHHPLAPPGDSRNASLPLGAPSPLQPATGDVASDSYNNVFRDTEALRELGVTHYRFSISWARVLPNGSAGVPNREGLRYYRRLLERLRELGVQPVVTLYHWDLPQRLQDAYGGWANRALADHFRDYAELCFRHFGGQVKYWITIDNPYVVAWHGYATGRLAPGIRGSPRLGYLVAHNLLLAHAKVWHLYNTSFRPTQGGQVSIALSSHWINPRRMTDHSIKECQKSLDFVLGWFAKPVFIDGDYPESMKNNLSSILPDFTESEKKFIKGTADFFALCFGPTLSFQLLDPHMKFRQLESPNLRQLLSWIDLEFNHPQIFIVENGWFVSGTTKRDDAKYMYYLKKFIMETLKAIKLDGVDVIGYTAWSLMDGFEWHRGYSIRRGLFYVDFLSQDKMLLPKSSALFYQKLIEKNGFPPLPENQPLEGTFPCDFAWGVVDNYIQVDTTLSQFTDLNVYLWDVHHSKRLIKVDGVVTKKRKSYCVDFAAIQPQIALLQEMHVTHFRFSLDWALILPLGNQSQVNHTILQYYRCMASELVRVNITPVVALWQPMAPNQGLPRLLARQGAWENPYTALAFAEYARLCFQELGHHVKLWITMNEPYTRNMTYSAGHNLLKAHALAWHVYNEKFRHAQNGKISIALQADWIEPACPFSQKDKEVAERVLEFDIGWLAEPIFGSGDYPWVMRDWLNQRNNFLLPYFTEDEKKLIQGTFDFLALSHYTTILVDSEKEDPIKYNDYLEVQEMTDITWLNSPSQVAVVPWGLRKVLNWLKFKYGDLPMYIISNGIDDGLHAEDDQLRVYYMQNYINEALKAHILDGINLCGYFAYSFNDRTAPRFGLYRYAADQFEPKASMKHYRKIIDSNGFPGPETLERFCPEEFTVCTECSFFHTRKS
modifications: left off: small tags and cut ends
notes: recombinant soluble α-klotho ectodomain, mouse aa 35-982 and human aa 34-981, FLAG- or Strep/His-tagged, purified from HEK293 cells
  FGF23 co-precipitation with Fc-FGFR1c: could coprecipitate sKL and FGF23; also recorded: complex formation with FGFR1c
